Where a chain is given by its changes, count along the chain named. In names and notes the source's numbering stands.
T1: EsCas13d, nuclease-dead (Eubacterium siraeum, UniProt B0MS50, R295A;H300A;R849A;H854A)
T1 sequence: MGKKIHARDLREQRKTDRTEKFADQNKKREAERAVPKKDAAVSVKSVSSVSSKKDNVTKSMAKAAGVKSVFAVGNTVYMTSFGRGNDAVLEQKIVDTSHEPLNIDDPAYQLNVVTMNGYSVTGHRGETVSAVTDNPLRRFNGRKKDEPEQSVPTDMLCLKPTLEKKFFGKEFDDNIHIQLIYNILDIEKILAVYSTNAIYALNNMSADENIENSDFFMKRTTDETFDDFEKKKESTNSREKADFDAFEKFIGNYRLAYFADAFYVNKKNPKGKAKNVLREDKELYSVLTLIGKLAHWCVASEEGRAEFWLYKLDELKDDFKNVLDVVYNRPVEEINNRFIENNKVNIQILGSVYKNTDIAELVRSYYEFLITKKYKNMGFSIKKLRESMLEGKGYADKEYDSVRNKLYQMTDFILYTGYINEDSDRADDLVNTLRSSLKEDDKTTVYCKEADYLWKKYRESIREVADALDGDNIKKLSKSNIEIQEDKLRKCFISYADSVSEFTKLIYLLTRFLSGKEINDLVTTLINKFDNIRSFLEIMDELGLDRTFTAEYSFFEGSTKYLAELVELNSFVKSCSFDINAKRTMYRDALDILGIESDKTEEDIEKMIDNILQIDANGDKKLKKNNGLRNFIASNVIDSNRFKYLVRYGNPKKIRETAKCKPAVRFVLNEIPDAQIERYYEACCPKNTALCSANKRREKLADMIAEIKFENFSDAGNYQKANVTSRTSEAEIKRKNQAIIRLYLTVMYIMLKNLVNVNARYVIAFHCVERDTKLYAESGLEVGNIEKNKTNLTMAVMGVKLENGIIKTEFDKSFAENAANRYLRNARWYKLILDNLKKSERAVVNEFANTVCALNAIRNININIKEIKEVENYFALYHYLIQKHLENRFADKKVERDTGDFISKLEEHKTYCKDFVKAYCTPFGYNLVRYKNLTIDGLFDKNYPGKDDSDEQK

B1: target 1 insA 3' of 13,insA 3' of 7 (mixed)
RNA 1: CACCCGUGCAAAAAUGCAGGGGUCUAAAACUGAGCGGAUAACCUCUCUAUGG
RNA 2: GGGAAUGGAUCCACAUCUACGAAUUCGUACCAUAGAGAGAGUUAUCACGCUCACCGAGAUCGGAAGAGCACACGU
B2: target 1 insC 3' of 11,insC 3' of 9 (mixed)
RNA 1: B1 RNA 1
RNA 2: B1 RNA 2 with A40G, G41U, U42C, U45C, C46U, A47C
B3: target 1 insG 3' of 14,insU 3' of 9 (mixed)
RNA 1: B1 RNA 1
RNA 2: B1 RNA 2 with A40G, C46U, A47C
B4: target 1 G13A,G17A (mixed)
RNA 1: B1 RNA 1
RNA 2: GGGAAUGGAUCCACAUCUACGAAUUCGUACCAUAAAGAAGUUAUCCGCUCACCGAGAUCGGAAGAGCACACGU
B5: target 1 insA 3' of 4 (mixed)
RNA 1: B1 RNA 1
RNA 2: GGGAAUGGAUCCACAUCUACGAAUUCGUACCAUAGAGAGGUUAUCCGCAUCACCGAGAUCGGAAGAGCACACGU
B6: target 1 insC 3' of 22 (mixed)
RNA 1: B1 RNA 1
RNA 2: GGGAAUGGAUCCACAUCUACGAAUUCGUACCCAUAGAGAGGUUAUCCGCUCACCGAGAUCGGAAGAGCACACGU
B7: target 1 G5A,G13A (mixed)
RNA 1: B1 RNA 1
RNA 2: B4 RNA 2 with A35G, G47A
B8: target 1 del19 (mixed)
RNA 1: B1 RNA 1
RNA 2: GGGAAUGGAUCCACAUCUACGAAUUCGUACCAAGAGAGGUUAUCCGCUCACCGAGAUCGGAAGAGCACACGU
B9: target 1 U8C,G13A (mixed)
RNA 1: B1 RNA 1
RNA 2: B4 RNA 2 with A35G, U44C
B10: target 1 C6U,G17A (mixed)
RNA 1: B1 RNA 1
RNA 2: B4 RNA 2 with A39G, C46U
B11: target 1 insA 3' of 21,insU 3' of 14 (mixed)
RNA 1: B1 RNA 1
RNA 2: GGGAAUGGAUCCACAUCUACGAAUUCGUACCAAUAGAGAUGGUUAUCCGCUCACCGAGAUCGGAAGAGCACACGU
B12: target 1 G12U,C22G (mixed)
RNA 1: B1 RNA 1
RNA 2: B4 RNA 2 with C30G, A35G, A39G, G40U
B13: target 1 C4A,A18G (mixed)
RNA 1: B1 RNA 1
RNA 2: B4 RNA 2 with A34G, A35G, A39G, C48A
B14: target 1 G17C,C22A (mixed)
RNA 1: B1 RNA 1
RNA 2: B4 RNA 2 with C30A, A35C, A39G
B15: target 1 G5A,C6U (mixed)
RNA 1: B1 RNA 1
RNA 2: B4 RNA 2 with A35G, A39G, C46U, G47A
B16: target 1 insU 3' of 17,insG 3' of 3 (mixed)
RNA 1: B1 RNA 1
RNA 2: GGGAAUGGAUCCACAUCUACGAAUUCGUACCAUAGUAGAGGUUAUCCGCUGCACCGAGAUCGGAAGAGCACACGU
B17: target 1 insA 3' of 6,insU 3' of 1 (mixed)
RNA 1: B1 RNA 1
RNA 2: GGGAAUGGAUCCACAUCUACGAAUUCGUACCAUAGAGAGGUUAUCCAGCUCAUCCGAGAUCGGAAGAGCACACGU
B18: target 1 insC 3' of 10,insA 3' of 10 (mixed)
RNA 1: B1 RNA 1
RNA 2: B1 RNA 2 with A40G, G41U, U43C, U45A, C46U, A47C
B19: target 1 insG 3' of 14,insA 3' of 13 (mixed)
RNA 1: B1 RNA 1
RNA 2: B1 RNA 2 with A40G, G41A, U42G, A44U, U45A, C46U, A47C
B20: target 1 insC 3' of 17,insA 3' of 7 (mixed)
RNA 1: B1 RNA 1
RNA 2: B1 RNA 2 with A36C, G37A, A38G, G39A, A40G
B21: target 1 insU 3' of 21,insG 3' of 16 (mixed)
RNA 1: B1 RNA 1
RNA 2: B11 RNA 2 with A32U, A39G, U40A
B22: target 1 insU 3' of 18,insA 3' of 5 (mixed)
RNA 1: B1 RNA 1
RNA 2: B16 RNA 2 with G35U, U36G, C49A, U50C, G51U
B23: target 1 C2U,G12U (mixed)
RNA 1: B1 RNA 1
RNA 2: B4 RNA 2 with A35G, A39G, G40U, C50U
B24: target 1 C4A,G12C (mixed)
RNA 1: B1 RNA 1
RNA 2: B4 RNA 2 with A35G, A39G, G40C, C48A
B25: target 1 C7G,U10A (mixed)
RNA 1: B1 RNA 1
RNA 2: B4 RNA 2 with A35G, A39G, U42A, C45G
B26: target 1 A18U,C21A (mixed)
RNA 1: B1 RNA 1
RNA 2: B4 RNA 2 with C31A, A34U, A35G, A39G
B27: target 1 U3G,U8C (mixed)
RNA 1: B1 RNA 1
RNA 2: B4 RNA 2 with A35G, A39G, U44C, U49G
B28: target 1 G5U,U10A (mixed)
RNA 1: B1 RNA 1
RNA 2: B4 RNA 2 with A35G, A39G, U42A, G47U
B29: target 1 U3C,C7U (mixed)
RNA 1: B1 RNA 1
RNA 2: B4 RNA 2 with A35G, A39G, C45U, U49C
B30: target 1 del9,del20 (mixed)
RNA 1: B1 RNA 1
RNA 2: GGGAAUGGAUCCACAUCUACGAAUUCGUACCUAGAGAGGUUUCCGCUCACCGAGAUCGGAAGAGCACACGU
B31: target 1 del15,del20 (mixed)
RNA 1: B1 RNA 1
RNA 2: B30 RNA 2 with G36A, A37G, G39U, U41A
B32: target 1 G12A,G13C (mixed)
RNA 1: B1 RNA 1
RNA 2: B4 RNA 2 with A35G, A39C, G40A
B33: target 1 C6A,C22A (mixed)
RNA 1: B1 RNA 1
RNA 2: B4 RNA 2 with C30A, A35G, A39G, C46A
B34: target 1 insU 3' of 21,insC 3' of 13 (mixed)
RNA 1: B1 RNA 1
RNA 2: B11 RNA 2 with A32U, U40G, G41C

target: T1, EsCas13d, nuclease-dead; experiment: crRNA (strand 1, pre-loaded); Mg2+; 40 mM Tris-HCl pH 7.5, 150 mM NaCl, 6 mM MgCl2, 1 mM DTT, 0.1% Tween-20, 0.2 mg/ml BSA; 25 C; 10 min per concentration, then washed; conditions: tags: His6-TwinStrep-SUMO cleaved; N-terminal SNAP kept (SNAP-Surface 488); label: 3' end held by stalled T7 RNA polymerase

B1 was tested. Which Kd did it give?
The Kd was 4.06 ± 0.21 nM.

Which Kd does the source give for B2 here?
The Kd was 29.4 ± 2.5 nM.

Which Kd does the source give for B3 here?
The Kd was 81 ± 28 nM.

How did the Kd turn out when B4 was run?
Its Kd is 66 ± 19 nM.

How did the Kd turn out when B5 was run?
The Kd was 8.5 ± 1.1 nM.

B6 was tested. Which Kd did it give?
The Kd was 14.7 ± 0.9 nM.

For B7, which Kd is on record?
The Kd was 34 ± 7 nM.

B8 was tested. Which Kd did it give?
The Kd was 26.4 ± 2.2 nM.

How did the Kd turn out when B9 was run?
The Kd was 61 ± 12 nM.

B10 was tested. Which Kd did it give?
The Kd was 42 ± 4 nM.

For B11, which Kd is on record?
The Kd was 49 ± 11 nM.

B12 was tested. Which Kd did it give?
The Kd was 42 ± 6 nM.

How did the Kd turn out when B13 was run?
Its Kd is 68 ± 16 nM.

B14 was tested. Which Kd did it give?
Its Kd is roughly 60 nM.

With B15 as the binder, how does the Kd read?
The Kd was 13.1 ± 0.8 nM.

With B16 as the binder, how does the Kd read?
The Kd was 23.4 ± 2.7 nM.

Which Kd does the source give for B17 here?
The Kd was 25 ± 5 nM.

Which Kd does the source give for B18 here?
Its Kd is 13.5 ± 1 nM.

For B19, which Kd is on record?
The Kd was 10.9 ± 0.5 nM.

For B20, which Kd is on record?
The Kd was 38 ± 4 nM.

Which Kd does the source give for B21 here?
The Kd was 87 ± 23 nM.

For B22, which Kd is on record?
The Kd was 23.7 ± 2.6 nM.

How did the Kd turn out when B23 was run?
Its Kd is 10.5 ± 0.5 nM.

How did the Kd turn out when B24 was run?
Its Kd is 31 ± 8 nM.

Which Kd does the source give for B25 here?
The Kd was 11.7 ± 0.5 nM.

With B26 as the binder, how does the Kd read?
Its Kd is 56 ± 6 nM.

How did the Kd turn out when B27 was run?
The Kd was 7.2 ± 0.33 nM.

Which Kd does the source give for B28 here?
The Kd was 95 ± 22 nM.

With B29 as the binder, how does the Kd read?
The Kd was 19.6 ± 2.2 nM.

B30 was tested. Which Kd did it give?
The Kd was 52 ± 7 nM.

With B31 as the binder, how does the Kd read?
Its Kd is 90 ± 40 nM.

Which Kd does the source give for B32 here?
Its Kd is roughly 90 nM.

With B33 as the binder, how does the Kd read?
The Kd was 10.5 ± 0.6 nM.

With B34 as the binder, how does the Kd read?
Its Kd is 32 ± 4 nM.

From article PMC10786891, “Massively parallel profiling of RNA-targeting CRISPR-Cas13d”
